Data on one substance can be found in patent US20030186847A1, “Insulin derivatives and synthesis thereof” (priority 2000, published 2003).

Where “and” joins values, the source holds several entries; their conditions need not be identical. Equal values may be shown once.

The target in series [1] is T1, TBG (thyroxine binding globulin) (Homo sapiens, UniProt P05543).
T1 sequence (P05543 21-415): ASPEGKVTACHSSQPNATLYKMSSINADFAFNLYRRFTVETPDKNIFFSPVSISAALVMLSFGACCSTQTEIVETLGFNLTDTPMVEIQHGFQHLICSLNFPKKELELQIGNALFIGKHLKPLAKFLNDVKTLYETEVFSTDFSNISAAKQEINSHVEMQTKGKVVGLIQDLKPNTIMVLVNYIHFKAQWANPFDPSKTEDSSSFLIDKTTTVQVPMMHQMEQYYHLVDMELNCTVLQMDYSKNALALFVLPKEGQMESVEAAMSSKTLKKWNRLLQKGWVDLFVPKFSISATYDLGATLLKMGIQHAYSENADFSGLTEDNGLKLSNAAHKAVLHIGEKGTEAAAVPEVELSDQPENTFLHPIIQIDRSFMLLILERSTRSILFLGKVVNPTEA
Kind of series: FPLC binding to THBPs after overnight incubation, IRI by RIA: TBG. To be noted: TBG 0.238 μM.

The test system of series [2] is primary antibody W12 (polyclonal anti-insulin antibody). Kind of series: Double-antibody radioimmunoassay: inhibition of [125I]insulin binding to primary antibody W12. To be noted: standard solutions, RIA. Set-up: species or system guinea-pig.
Method: The assay was calibrated using insulin standards. […] A double dispenser (Dilutrend, Boehringer Corporation London Ltd) was used to add the appropriate volume of buffer and standard or FPLC fractions into the labelled LP3 tubes. The total volume of each tube was 500 μl. In addition, three tubes of NSB (non-specific binding), containing the standardized HSA concentration, were prepared with, Barbitone/HSA(0.2% w/v) and FPLC/Barbitone/HSA buffers. […] The radioactivity in 100 μl of the resulting tracer solution was counted in the γ-counter, and the counts per minute (cpm) should lie between 3000-5000 cpm. ANSA (2 mg/ml) was dissolved in the solution, and it functioned to displace the T4 moieties on the analogues from the THBPs, since the THBP could be shielding the insulin moiety that was to be assayed. Finally, 100 μl of this solution was added to every tube. The primary antibody, [MUT], is a polyclonal, guinea-pig anti-insulin antibody. […] It was diluted to 1:45,000 in Barbitone/HSA(0.2% w/v) buffer, and 100 μl was added to every tube, except the TC and NSB tubes. […] Finally, the samples, together with the TC and NSB tubes, were counted in the γ-counter using a programme for […] ). Double antibody RIA was used to quantify the immunoreactive insulin (IRI) in the FPLC fractions.
The next series deals with T2, insulin receptors on LPM (Rattus norvegicus, UniProt P15127).
T2 construct: isolate plasma membrane fractions from fresh rat livers; from tissue; host or cells: rat liver plasma membrane (microsomal light fraction)
T2 sequence (P15127 27-759 limits assumed): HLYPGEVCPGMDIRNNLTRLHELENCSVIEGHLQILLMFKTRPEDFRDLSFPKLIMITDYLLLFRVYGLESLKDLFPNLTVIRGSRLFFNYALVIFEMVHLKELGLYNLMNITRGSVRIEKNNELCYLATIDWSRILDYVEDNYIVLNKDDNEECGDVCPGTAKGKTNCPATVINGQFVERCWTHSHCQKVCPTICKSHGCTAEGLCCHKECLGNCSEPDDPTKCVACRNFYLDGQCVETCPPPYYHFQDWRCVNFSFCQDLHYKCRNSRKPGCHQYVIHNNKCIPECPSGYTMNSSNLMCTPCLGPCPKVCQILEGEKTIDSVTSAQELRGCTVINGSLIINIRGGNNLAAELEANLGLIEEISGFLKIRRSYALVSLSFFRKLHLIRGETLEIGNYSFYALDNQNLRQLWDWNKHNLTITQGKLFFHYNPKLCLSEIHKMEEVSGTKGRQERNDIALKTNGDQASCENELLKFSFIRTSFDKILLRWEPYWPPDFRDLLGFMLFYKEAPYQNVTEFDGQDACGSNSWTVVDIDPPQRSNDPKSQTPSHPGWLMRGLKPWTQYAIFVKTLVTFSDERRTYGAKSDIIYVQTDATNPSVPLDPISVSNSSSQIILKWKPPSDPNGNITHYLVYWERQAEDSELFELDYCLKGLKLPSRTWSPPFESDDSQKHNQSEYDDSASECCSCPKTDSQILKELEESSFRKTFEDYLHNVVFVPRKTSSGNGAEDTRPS
Kind of series: Equilibrium binding assay: inhibition of [125I]insulin binding to rat liver plasma membrane (LPM). To be noted: absence of THBPs.

The subject of series [3] is normal human serum (TBG, albumin, prealbumin). Kind of series: FPLC binding to THBPs after overnight incubation, IRI by RIA: normal human serum. Format: in vitro ADME. To be noted: normal human serum undiluted. The method, then: To ascertain the binding of the insulin or the analogue to the thyroid hormone binding proteins (THBPs), they were incubated overnight at 4° C. The bound and unbound species were separated by molecular weight with FPLC.
Solutions (0.5 ml) of THBPs were prepared in FPLC buffer as follows and then vortexed:
It was vortexed and incubated at 4° C. for ≈16 hours or overnight. Before FPLC, it was vortexed again, and filtered through a syringe filter of pore size 0.2 μm (Acrodisc® LC13 PVDF from Gelman, UK) to remove bacteria and serum precipitates.
The fraction tubes (LP3 tubes) were coated with 50 μl 3% (w/v) HSA to prevent the analogues from adsorbing to the tubes' inner surfaces. The fraction size was programmed as 0.50 ml. Immunoreactive insulin in each fraction was assayed with radioimmunoassay on the same day.
IRI content in each fraction was assayed by RIA.
FIGS. 3a-d show the elution profiles of the conjugates after overnight incubation with 5% human serum albumin (HSA). […] The calculated % bound and % free values are included in Table 3. Appearances of the THBPS, as detected by UV absorbance on the original chromatogram (which was not sensitive enough to detect the analogues) are also indicated as arrows on the elution profiles. The shadowed box represents the bound fractions; the clear box represents free fractions.

The target in series [4] is T3, plasma protein thyroxine binding globulin (TBG) (Homo sapiens, UniProt P05543).
T3 sequence (P05543 21-415): T1 sequence (P05543 21-415)
Put plainly: IAsys optical biosensor kinetic binding to immobilized TBG. Particulars: control, 500 μg/ml.
Method: The optical bio-sensor IAsys makes it possible to record biomolecular interactions in real time and thus kinetical studies.
The surface of the cuvette is covered with a carboxymethylated dextran matrix (CMD), to which the plasma protein TBG is immobilized.
Immobilization of TBG to the carboxymethylated matrix is detected via the change of the resonance angle.
For the kinetical studies the Thyroid-Insulin conjugates were injected into the microcuvette in dilution series of 200, 300, 400 and 500 μg/ml in HBS/Tween-buffer at 25° C. To test for reproducibility, all measurements were repeated 3 times.
Determination of “on-rate” constants kon at various ligand concentrations cL allow kon to be plotted against cL according to equation (4). This gives the association rate constant kA from the slope and the dissociation rate constant kD at C2=O. It has, however, to be taken into account that the error of kD becomes too large when kD<0,01 s^−1 (IAsys, METHODS GUIDE).
The association and dissociation curves of the 3 Thyroid-Insulin-conjugates indicated in Table 3 were analyzed with the program Fast-fit.
Evaluation of dissociation was also via single phase curve-fitting, for the same reasons as above.

From the text for insulin receptors on LPM: Rat liver plasma membrane (LPM) was isolated to be used in equilibrium binding assays as the source of insulin receptors.
This equilibrium binding assay determines the analogues affinity to the insulin receptors on the LPM, both in the presence and absence of the THBPs. […] The amount of bound tracer was counted in the γ counter after separating the bound and free species by centrifugation.
For the binding assays performed in the presence THBP, shifts in the binding curves and the changes in ED50s and RPE are described relative to binging of the same analogue in the absence of THBP.

With “H-Ins: unmodified (native, human) insulin used as control and reference”, the “Mean % Free (fractions 15.5-25 ml)” value in series [1] is recorded as 90.15%; in series [3], 98.39%. The “Mean % Bound (fractions 5.5-15 ml)” value in series [1] (n = 3) was 9.85% and 9.85 ± 2.14%; in series [3] (n = 3) it was 1.61 ± 0.47%. Further, in series [2], the “ED50, inhibition of [125I]insulin binding to W12” value amounted to 1.065 nM. For the same substance, the “Mean ED50 ± SEM” value with insulin receptors on LPM stood at 8.49 ± 0.69 nM. The “association to immobilized TBG” value in series [4] is “association cannot be observed”.
